Target: cyno IL21R(1-232)-FLAG-His (cynomolgus monkey)
Assay: BLI; ForteBio Octet RED384/HTX, 27 C; 10 mM Tris pH 7.5, 150 mM NaCl, 1 mM CaCl2, BSA, 0.13% Triton X-100; biotinylated human or cyno IL21R(1-232)-FLAG-His captured on streptavidin SAX tips to 2.0 nm; samples in 3-fold dilutions, top 300 nM for mutein fusions; association 20 min, dissociation 1.5 h; global 1:1 fit

| Kd [nM] | Substance |
| --- | --- |
| 0.044 | recombinant human IL-21 (free wild-type cytokine) (from UniProt Q9HBE4 25-162) (ligand) |

Target: human IL21R-Fc (bivalent) (human) (UniProt Q9HBE5)
Chain of UniProt Q9HBE5 (Q9HBE5 20-232): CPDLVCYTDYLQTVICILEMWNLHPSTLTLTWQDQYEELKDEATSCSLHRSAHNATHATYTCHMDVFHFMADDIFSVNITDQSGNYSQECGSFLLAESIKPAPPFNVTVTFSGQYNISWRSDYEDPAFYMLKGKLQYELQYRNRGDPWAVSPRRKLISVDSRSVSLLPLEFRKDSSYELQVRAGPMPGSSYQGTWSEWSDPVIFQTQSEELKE
Assay: BLI; ForteBio Octet RED384/HTX, 27 C; 10 mM Tris pH 7.5, 150 mM NaCl, 1 mM CaCl2, BSA, 0.13% Triton X-100; receptor reagent bivalent IL21R-Fc (how it was held is not told); samples in 3-fold dilutions, top 10 nM for wild-type IL21 fusions, 300 nM for mutein fusions; association 20 min, dissociation 1.5 h; global 1:1 fit

| Substance | Kd [nM] |
| --- | --- |
| anti-PD-1 mAb x IL-21 K75P, homodimer | 1 |
| anti-PD-1 mAb x IL-21 R5A, homodimer | 0.24 |
| anti-PD-1 mAb x IL-21 R76H, homodimer | 2 |
| anti-PD-1 mAb x IL-21 K72D, homodimer | 0.24 |
| anti-PD-1 mAb x IL-21 Q12N, homodimer | 0.38 |
| anti-PD-1 mAb x IL-21 K73I, homodimer | 0.17 |
| anti-PD-1 mAb x IL-21 K77G, homodimer (from UniProt Q9HBE4 25-162) | 0.66 |
| anti-PD-1 mAb x IL-21 R76K, homodimer | 0.2 |
| anti-PD-1 mAb x IL-21 K72P, homodimer | 9 |
| anti-PD-1 mAb x IL-21 K73Q, homodimer | 0.069 |
| anti-PD-1 mAb x IL-21 K73H, homodimer | 0.19 |
| anti-PD-1 mAb x IL-21 Q12T, homodimer | < 0.26 |
| anti-PD-1 mAb x IL-21 Q12S, homodimer | 0.32 |
| anti-PD-1 mAb x IL-21 R76N, homodimer | 15 |
| anti-PD-1 mAb x IL-21 R76M, homodimer | 0.6 |
| anti-PD-1 mAb x IL-21 Q12D, homodimer | 0.42 |
| anti-PD-1 mAb x IL-21 K73G, homodimer | 0.25 |
| anti-PD-1 mAb x IL-21 Q12V, homodimer | < 2.2 |
| anti-PD-1 mAb x IL-21 Q12A, homodimer | 0.23 |
| anti-PD-1 mAb x IL-21 L13D, homodimer | 11 |
| anti-PD-1 mAb x IL-21 K75G, homodimer | 0.16 |

The next lines start with the values.

| Kd [nM] | Substance |
| --- | --- |
| 12 | anti-PD-1 mAb x IL-21 R76D, homodimer |
| 4 | anti-PD-1 mAb x IL-21 I8S, homodimer |
| 2.1 | anti-PD-1 mAb x IL-21 R5Q, homodimer |
| 2 | anti-PD-1 mAb x IL-21 R76G, homodimer |
| 2 | anti-PD-1 mAb x IL-21 K73P, homodimer |
| 0.9 | anti-PD-1 mAb x IL-21 R65P, homodimer |
| 0.44 | anti-PD-1 mAb x IL-21 K73D, homodimer |
| 0.4 | anti-PD-1 mAb x IL-21 R76P, homodimer |
| 0.32 | anti-PD-1 mAb x IL-21 P79D, homodimer |
| 0.25 | anti-PD-1 mAb x IL-21 K72G, homodimer |
| 0.2 | anti-PD-1 mAb x IL-21 R76L, homodimer |
| 0.17 | anti-PD-1 mAb x IL-21 Q19D, homodimer |
| 0.17 | anti-PD-1 mAb x IL-21 K73S, homodimer |
| 0.13 | anti-PD-1 mAb x IL-21 R65G, homodimer |
| 0.073 | anti-PD-1 mAb x IL-21 K73E, homodimer |
| 0.053 | anti-PD-1 mAb x IL-21 K73A, homodimer |
| 0.031 | anti-PD-1 mAb x IL-21 Q12E, homodimer |
